Residue numbers refer to the chain shown, from its start. Names and notes keep the numbering of the source.
B1: N70LQ71LF157A: mutated TriA variant of SEQ ID NO: 2 (protein)
chain: MQTLSIQHGTLVTMDQYRRVLGDSWVHVQDGRIVALGVHAESVPPPADRVIDARGKVVLPGFINAHTHVLLILLRGGPSHGRQLYDWLFNVLYPGQKAMRPEDVAVAVRLYCAEAVRSGITTINDNADSAIYPGNIEAAMAVYGEVGVRVVYARMFADRMDGRIQGYVDALKARSPQVELCSIMEETAVAKDRITALSDQYHGTAGGRISVWPAPAITPAVTVEGMRWAQAFARDRAVMWTLHMAESDHDERLHWMSPAEYMECYGLLDERLQVAHCVYFDRKDVRLLHRHNVKVASQVVSNAYLGSGVAPVPEMVERGMAVGIGTDDGNCNDSVNMIGDMKFMAHIHRAVHRDADVLTPEKILEMATIDGARSLGMDHEIGSIETGKRADLILLDLRHPQTTPHHHLAATIVFQAYGNEVDTVLIDGNVVMENRRLSFLPPERELAFLEEAQSRATAILQRANMVANPAWRSL
modifications: Pseudomonas
B2: V69A: mutated TriA variant of SEQ ID NO: 2 (protein)
chain: B1 chain with V69A, L70N, L71Q, A157F
modifications: Pseudomonas
B3: Q71LV91AL92V: mutated TriA variant of SEQ ID NO: 2 (protein)
chain: B1 chain with L70N, V91A, L92V, A157F
modifications: Pseudomonas
B4: N70IQ71IF157A: mutated TriA variant of SEQ ID NO: 2 (protein)
chain: B1 chain with L70I, L71I
modifications: Pseudomonas
B5: N70LQ71ID128IM155V: mutated TriA variant of SEQ ID NO: 2 (protein)
chain: B1 chain with L71I, D128I, M155V, A157F
modifications: Pseudomonas
B6: V69L: mutated TriA variant of SEQ ID NO: 2 (protein)
chain: B1 chain with V69L, L70N, L71Q, A157F
modifications: Pseudomonas
B7: L88VL92V: mutated TriA variant of SEQ ID NO: 2 (protein)
chain: B1 chain with L70N, L71Q, L88V, L92V, A157F
modifications: Pseudomonas
B8: L88AF157I: mutated TriA variant of SEQ ID NO: 2 (protein)
chain: B1 chain with L70N, L71Q, L88A, A157I
modifications: Pseudomonas
B9: L88VL92IF157V: mutated TriA variant of SEQ ID NO: 2 (protein)
chain: B1 chain with L70N, L71Q, L88V, L92I, A157V
modifications: Pseudomonas
B10: Q96V: mutated TriA variant of SEQ ID NO: 2 (protein)
chain: B1 chain with L70N, L71Q, Q96V, A157F
modifications: Pseudomonas
B11: Q71LL88AV91AL92VF157L: mutated TriA variant of SEQ ID NO: 2 (protein)
chain: B1 chain with L70N, L88A, V91A, L92V, A157L
modifications: Pseudomonas
B12: L88VL92VF157A: mutated TriA variant of SEQ ID NO: 2 (protein)
chain: B1 chain with L70N, L71Q, L88V, L92V
modifications: Pseudomonas
B13: N70VQ71L92VM155AF157A: mutated TriA variant of SEQ ID NO: 2 (protein)
chain: B1 chain with L70V, L92V, M155A
modifications: Pseudomonas
B14: Q71LL88AV91AL92V: mutated TriA variant of SEQ ID NO: 2 (protein)
chain: B1 chain with L70N, L88A, V91A, L92V, A157F
modifications: Pseudomonas
B15: L88VL92I: mutated TriA variant of SEQ ID NO: 2 (protein)
chain: B1 chain with L70N, L71Q, L88V, L92I, A157F
modifications: Pseudomonas
B16: N70LQ71ID128IM155VF157L: mutated TriA variant of SEQ ID NO: 2 (protein)
chain: B1 chain with L71I, D128I, M155V, A157L
modifications: Pseudomonas
B17: Q71LV91A: mutated TriA variant of SEQ ID NO: 2 (protein)
chain: B1 chain with L70N, V91A, A157F
modifications: Pseudomonas
B18: N70IQ71L92VM155AF157A: mutated TriA variant of SEQ ID NO: 2 (protein)
chain: B1 chain with L70I, L92V, M155A
modifications: Pseudomonas
B19: L88AF157L: mutated TriA variant of SEQ ID NO: 2 (protein)
chain: B1 chain with L70N, L71Q, L88A, A157L
modifications: Pseudomonas

Format: biochemical
Conditions: pH 7.2
In short: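 TriA variants, N-His-tagged, were expressed in E. coli BL21(DE3) Gold with groEL/groES chaperones and purified by Ni-IDA affinity. Enzyme in 25 mM sodium phosphate pH 7.2 was incubated with azine substrates at 1 nM to 10 nM, 30° C. Products were identified by UPLC-HR-MS.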

In order of falling “Degradation in % of 6-cyclopentyl-N4-(2,3,4,5,6-pentafluorophenyl)-1,3,5-triazine-2,4-diamine” value:
1. B3  3%
2. B4  3%
3. B11  1%
4. B13  1%
5. B14  1%
6. B18  1%
7. B1  0%
8. B2  0%
9. B5  0%
10. B6  0%
11. B7  0%
12. B8  0%
13. B9  0%
14. B10  0%
15. B12  0%
16. B15  0%
17. B16  0%
18. B17  0%
19. B19  0%

In order of falling “Degradation in % of Melamine” value:
1. B5  9%
2. B15  8%
3. B3  7%
4. B2  5%
5. B9  5%
6. B10  4%
7. B11  4%
8. B16  3%
9. B1  2%
10. B19  2%
11. B4  0%
12. B6  0%
13. B7  0%
14. B8  0%
15. B12  0%
16. B13  0%
17. B14  0%
18. B17  0%
19. B18  0%
